For this assay, the target named is monoclonal antibody NB206-15B6-F8, raised against MMCN-151 antigen. Nature of the assay: competitive ELISA on Biotin-… coated plate. On the technique in general: ELISA stands for enzyme-linked immunosorbent assay.

Turning to EDIEDGTFSK [synthetic free peptide … (MMCN-151)], the OD (450-650), signal at full inhibition is 0.5 OD (450-650) and the OD (450-650), signal without inhibition was 2 OD (450-650).

These data come from patent US20150118698A1.
